The target of test [1] is human Ang-2 H375Q (human) (UniProt O15123). As to the kind of experiment: ELISA. (In general: An ELISA detects its analyte on a solid surface through an enzyme-linked reagent.)
Test [2] concerns the target human Ang-2 mutated at positions 365 and 367 (human) (UniProt O15123). Nature of the test: ELISA.
For test [3], the target named is human Ang-2 V345M (human) (UniProt O15123). As to the kind of experiment: ELISA.
For test [4], the target named is Human Ang-1/2 BsmI chimera (human). As to the kind of experiment: ELISA.
The target of a further test is human Ang-2443 (human) (UniProt O15123). Nature of the test: ELISA.
Chain of human Ang-2443 (human) (O15123 other isoform, or with tags, fused parts or gaps): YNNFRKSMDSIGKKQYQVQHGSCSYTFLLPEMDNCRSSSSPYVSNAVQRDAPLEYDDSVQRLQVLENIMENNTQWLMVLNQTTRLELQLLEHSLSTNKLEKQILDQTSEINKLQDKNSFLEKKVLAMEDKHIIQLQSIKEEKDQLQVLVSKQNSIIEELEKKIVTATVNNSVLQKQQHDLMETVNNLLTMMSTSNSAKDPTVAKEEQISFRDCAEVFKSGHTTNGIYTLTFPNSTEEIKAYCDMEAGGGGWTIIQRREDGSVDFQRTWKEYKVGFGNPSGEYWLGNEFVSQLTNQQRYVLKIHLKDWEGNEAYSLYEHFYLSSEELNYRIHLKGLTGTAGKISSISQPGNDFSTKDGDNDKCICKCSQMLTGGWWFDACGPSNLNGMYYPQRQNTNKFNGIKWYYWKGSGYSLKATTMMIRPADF
Test [5] addresses mouse Angiopoietin-2 (mouse) (UniProt O35608). Nature of the test: ELISA.
The target in test [6] is Mouse/Human chimeric Ang-2 with human StuI-TfiI fragment (residues 310-400) (mouse with human residues 310-400) (UniProt O35608). Nature of the test: ELISA.
Chain of Mouse/Human chimeric Ang-2 with human StuI-TfiI fragment (residues 310-400) (mouse with human residues 310-400) (O35608 other isoform, or with tags, fused parts or gaps mutant limits assumed): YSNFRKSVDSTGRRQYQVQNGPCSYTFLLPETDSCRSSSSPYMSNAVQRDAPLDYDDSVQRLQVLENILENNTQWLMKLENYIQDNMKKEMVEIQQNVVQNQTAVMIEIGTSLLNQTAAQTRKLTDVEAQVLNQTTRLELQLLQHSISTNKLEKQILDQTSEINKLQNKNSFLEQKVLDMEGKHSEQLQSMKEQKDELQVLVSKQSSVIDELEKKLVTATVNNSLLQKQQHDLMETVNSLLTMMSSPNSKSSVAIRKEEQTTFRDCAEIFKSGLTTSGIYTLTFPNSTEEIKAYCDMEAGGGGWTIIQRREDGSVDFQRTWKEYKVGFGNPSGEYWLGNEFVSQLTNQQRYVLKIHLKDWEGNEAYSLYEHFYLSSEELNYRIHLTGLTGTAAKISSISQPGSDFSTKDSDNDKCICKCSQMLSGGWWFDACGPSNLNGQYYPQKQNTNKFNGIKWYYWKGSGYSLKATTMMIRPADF
Test [7] has as its target Mouse/Human Ang-2 StuI chimera (mouse; human) (UniProt O35608). Nature of the test: ELISA.
Test [8] has as its target recombinant human Angiopoietin-2 (human) (UniProt O15123). Nature of the test: Biacore, mAb captured. A general note: In SPR one partner is held on a chip, and binding of the other changes the refractive index at the surface.
Test [9] shares this target. As to the kind of experiment: Biacore, mAb captured; kd held constant in fit.
Test [10] has as its target mouse Angiopoietin-2 (mouse) (UniProt O35608). Nature of the test: ELISA titration, mouse Ang-2 supernatant coated.
For test [11], the target named is recombinant human Angiopoietin-2 (human) (UniProt O15123). As to the kind of experiment: inhibition of rhAng-2 binding to its receptor.
Chain of recombinant human Angiopoietin-2 (human) (O15123 19-496 limits assumed): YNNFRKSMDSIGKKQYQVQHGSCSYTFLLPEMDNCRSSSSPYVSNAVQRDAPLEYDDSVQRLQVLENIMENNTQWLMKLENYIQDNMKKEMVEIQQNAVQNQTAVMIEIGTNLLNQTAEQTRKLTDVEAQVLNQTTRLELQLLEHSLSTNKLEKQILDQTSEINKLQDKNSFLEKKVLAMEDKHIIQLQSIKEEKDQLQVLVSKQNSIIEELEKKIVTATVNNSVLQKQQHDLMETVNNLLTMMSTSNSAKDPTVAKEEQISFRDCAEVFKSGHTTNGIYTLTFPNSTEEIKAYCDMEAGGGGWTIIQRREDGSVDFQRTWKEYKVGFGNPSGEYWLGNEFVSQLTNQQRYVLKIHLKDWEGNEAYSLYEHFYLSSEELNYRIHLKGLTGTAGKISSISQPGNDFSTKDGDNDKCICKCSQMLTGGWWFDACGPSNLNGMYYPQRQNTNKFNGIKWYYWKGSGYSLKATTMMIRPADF

Chain of human Ang-2 H375Q (human) (O15123 19-496, stated change not applied): as the sequence (O15123 19-496 limits assumed) above
Chain of human Ang-2 mutated at positions 365 and 367 (human) (O15123 19-496, stated change not applied): as the sequence (O15123 19-496 limits assumed) above
Chain of human Ang-2 V345M (human) (O15123 19-496, stated change not applied): as the sequence (O15123 19-496 limits assumed) above
Chain of Mouse/Human Ang-2 StuI chimera (mouse; human) (O35608 other isoform, or with tags, fused parts or gaps mutant): as the sequence (O35608 other isoform, or with tags, fused parts or gaps mutant limits assumed) above, with T386K, A393G, S403N, S410G, S424T, Q440M, K445R counted along it
Chain of mouse Angiopoietin-2 (mouse) (O35608 19-496 S348N/G411A limits assumed): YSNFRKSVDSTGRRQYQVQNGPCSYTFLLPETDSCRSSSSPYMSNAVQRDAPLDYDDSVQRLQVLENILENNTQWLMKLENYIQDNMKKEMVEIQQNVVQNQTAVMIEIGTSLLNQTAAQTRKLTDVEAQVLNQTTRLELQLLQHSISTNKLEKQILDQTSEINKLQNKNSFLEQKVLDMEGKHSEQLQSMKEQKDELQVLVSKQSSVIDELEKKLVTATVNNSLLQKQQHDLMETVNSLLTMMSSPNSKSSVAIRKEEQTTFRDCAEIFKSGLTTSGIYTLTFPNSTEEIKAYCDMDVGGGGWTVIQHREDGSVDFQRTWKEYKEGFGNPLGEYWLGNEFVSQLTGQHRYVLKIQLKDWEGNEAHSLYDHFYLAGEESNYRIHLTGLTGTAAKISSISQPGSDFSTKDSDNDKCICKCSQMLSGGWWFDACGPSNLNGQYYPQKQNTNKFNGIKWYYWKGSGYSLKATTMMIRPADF

B1: mAb 5.28.1 (antibody, V domains shown)
VH: EVQLVESGGIVVQPGGSLRLSCAASGFTFDDYTMHWVRQTPGKGLEWVSLISWDGGSTYYADSVKGRFTISRDNSKNSLYLQMNSLRTEDTALYYCAKDIDIAVAGTGFDHWGQGTLVTVSS
VL: EIVMTQSPATLSVSPGERATLSCRASQSVTSNLAWYQQKPGQAPRLLIYGALIRATGIPARFSGSGSGTEFTLTISSLQSEDFAVYYCQQYNNWPFTFGPGTKVDIKR
In the case of B1, the percent binding compared to human Ang-2 in test [1], in [2], in test [3] and in [4] was 100% throughout.

B2: mAb 5.39.1 (antibody, V domains shown)
VH: QVQLVQSGAEVTKPGASVKVSCKASGYTFTAYHMYWVRQAPGQGLEWMGWINPNSGGTNYAQKFQGRVTMTRDTSISTAYMELSRLRSDDSPVYYCARDQGIAAAGPFDYWGQGTLVTVSS
VL: EIVMTQSPATLSVSPGDRATLSCRASQSVSSNFAWYQQKPGQAPRLLIYGSSTRATGIPARFSGSGSGTEFTLTISSLQSEDFAVYYCQQYHYWWTFGQGTKVEFKR
B2: the percent binding compared to human Ang-2 in test [1], in test [2], in [3] and in test [4] was 100% throughout.

B3: mAb 3.3.2 (antibody, V domains shown)
VH: EVQLVESGGGLVQPGGSLRLSCAVSGFTFSSYWMSWVRQAPGKGLEWVANIKQDGSEKYYVDSVKGRFTISRDNAKNSLYLQMNSLRAEDTAVYYCARDQGIAVAGPFDYWGQGTLVTVSS
VL: EIVMTQSPATLSVSPGERATLSCRASQTVSSDLAWYQQKPGQAPRLLIYGASIRATGIPARFSGSGSGTEFTLTISSLQSEDFAVYSCQQYYNWWTFGQGTKVEIKR
For the molecule B3, the percent binding compared to human Ang-2 in test [1], in test [2], in test [3] and in test [4] was 100% each time.

B4: mAb 5.62.1 (antibody, V domains shown)
VH: EVQLVESGGGLVQPGGSLRLSCAASGFTFSSYWMSWVRQAPGKGLEWVANIKQDGSEKYYVDSVKGRFTISRDNAKNSLYLQMNSLRAEDTAVYYCARDPGIAVAGPFDYWGQGTLVTVSS
VL: EIVMTQSPATLSVSPGERATLSCRASQSVSSNLAWYQQKPGQAPRLLIYGAFTRATGIPARFSGSGSGTEFTLTISSLQSEDFAVYYCQQYNHWWTFGQGTKVGIKR
Turning to B4, the percent binding compared to human Ang-2 in [1], in [2], in test [3] and in [4] was 100% each time.

B5: mAb 5.88.3 (antibody, V domains shown)
VH: EVQMVESGGGLVQPGGSLRLSCAASGFTLRSYWMSWVRQAPGKGLEWVANIKEDGSEKYHVDSVKGRFTISRDNAENSLFLQMSSLRAEDTAVYYCARDMEASAGLFDYWGQGTLVTVSS
VL: EIVMTQSPATLSVSPGERAILSCRASQSISSNLAWYQQKPGQAPRLLIYGASTRATGIPARFSGSGSGTEFTLTISSLQSEDFAVYYCQQYNYWWTFGQGTKVEIKR
Turning to B5, the percent binding compared to human Ang-2 in test [1], in test [2], in test [3] and in test [4] was 100% in each case.

B6: mAb 5.86.1 (antibody, V domains shown)
VH: QVQLVQSGAEVKKPGASVKVSCKASGYTFTGYHMYWVRQAPGQGLEWLGWINPNSGGTNYAQKFQGRVTMTRDTSISTAYMELSRLRSDDTAVYYCVRDQGIAAAGPFDYWCQGTLVTVSS
VL: DIRMTQSPSSLSASVGDRVTITCRASQRISTYLNWYQQKPGKAPKFLIYAASSLQSGVPSRFSGSGSGTDFTLTISSLQPEDFATYYCQQSYTTPFTFGPGTKVDIKR
For B6, the percent binding compared to human Ang-2 in [1], in test [2], in [3] and in test [4] was 100% each time.

B7: mAb 5.2.1 (antibody, part only; not given: light chain, V domains shown, part only)
VH: QVQLVESGGGVVQPGRSLRLSCAASGFTFSSYGMHWVRQAPGKGLEWVAVIWFDGFNKYYADSVKGRFTISRDNSKNTLYLQMNSLRAEDTAVYHCARDRGYSGYDHYYGMDVWGQGTTVTVSSA
Consider B7, for which the percent binding compared to human Ang-2 (in [1]; in test [2]; in the test with human Ang-2443 (human); in test [3]; in test [6]; in test [4]) was 100% each time. In addition, in test [7], the percent binding compared to human Ang-2 came to 100%. The percent of their immunoreactivity on human Ang-2 in test [5] was 100%. The Kd (usually a measure of binding affinity in units of concentration) in test [8] was 0.062 nM. In test [8], the kon (commonly the second-order rate constant of association) worked out at 160000 M⁻¹ s⁻¹. For the same molecule, the koff – broadly, the rate constant with which the complex falls apart – in [9] was determined as 1e-05 s⁻¹. In [10], this molecule had an antibody concentration at saturation of 10 µg/mL. In addition, the OD650 in inibition assay in [11] is 0.069 OD650.

B8: mAb 6.3.1 (antibody, V domains shown)
VH: QVQLVQSGAEVKKPGASVKVSCKASGYTFTGYFMHWVPQAPGQGLEWMGWINPNSGGTNYAQNFQGRVTMTRDTSISTAYMELSRLRSDDTPVYYCARDPWQNWNSYFDYWGQGTLVTVSS
VL: DIQMTQSPSSLSASVGDRVTITCRASQSIRSYLNWYQQKPGKAPKVLIYAASSLQSGVPSRFSGSGSGTDFTLTISSLQPEDFATYYCQQSYSTLCSFGQGTKLEIKR
B8: the percent binding compared to human Ang-2 in test [1], in [2], in test [3] and in test [4] was 100% throughout.

B9: mAb 3.28.1 (antibody, part only; not given: light chain, V domains shown, part only)
VH: EVQLVESGGGLVQPGGSLRLSCAASGFTFSSSWMSWVRQAPGKGLEWVANIKQDGSDKYYVDSVKGRFTISRDNAKNSLYLQMNSLRAEDTAVYYCVRDKGSGWFDYWGQGTLVTVSSA
B9: the percent binding compared to human Ang-2 worked out at 100% in [1]; 100% in [2]; 100% with human Ang-2443 (human); 100% in [3]; 31% in test [6]; 100% in [4]. In addition, in [7], the percent binding compared to human Ang-2 amounted to 100%. Also, the dissociation constant (Kd) in test [8] turned out to be 0.037 nM. In [8], the kon was 270000 M⁻¹ s⁻¹. Besides, the koff in test [9] is 1e-05 s⁻¹. Besides, in test [11], the OD650 in inibition assay turned out to be 0.0588 OD650.

These data come from patent publication US20060246071A1.
